T1: His-Ub-RIPK1(497-583) (human, UniProt Q13546 497-583)
T1 sequence (looked up): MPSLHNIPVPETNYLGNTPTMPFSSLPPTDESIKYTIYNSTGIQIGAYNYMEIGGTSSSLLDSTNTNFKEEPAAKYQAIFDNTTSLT

T2: His-Ub-RIPK3(387-518) (human, UniProt Q9Y572 387-518)
T2 sequence (looked up): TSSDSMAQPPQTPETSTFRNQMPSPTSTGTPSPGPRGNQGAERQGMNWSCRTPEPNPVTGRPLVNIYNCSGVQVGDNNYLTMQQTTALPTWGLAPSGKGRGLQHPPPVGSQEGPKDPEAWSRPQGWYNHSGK

T3: mCHERRY-RIPK3(387-518) (human, UniProt Q9Y572 387-518)
T3 sequence (looked up): T2 sequence (looked up)

B1: M45(1-90) after removal of MBP with thrombin (domain or fragment, murine cytomegalovirus, UniProt Q06A28 1-90, looked up)
chain: MDRQPKVYSDPDNGFFFLDVPMPDDGQGGQQTATTAAGGAFGVGGGHSVPYVRIMNGVSGIQIGNHNAMSIASCWSPSYTDRRRRSYPKT
B2: M45(1-90) after removal of His6-ubiquitin (domain or fragment, murine cytomegalovirus, UniProt Q06A28 1-90, looked up)
chain: B1 chain
B3: mCHERRY-M45(1-90WT) (domain or fragment, murine cytomegalovirus, UniProt Q06A28 1-90, looked up)
chain: B1 chain
B4: YPet-M45 (domain or fragment, murine cytomegalovirus, UniProt Q06A28 1-90, looked up)
chain: B1 chain
B5: His-Ub-M45(1-90) (domain or fragment, murine cytomegalovirus, UniProt Q06A28 1-90, looked up)
chain: B1 chain
B6: MBP-M45(1-90) (domain or fragment, murine cytomegalovirus, UniProt Q06A28 1-90, looked up)
chain: B1 chain
B7: ECFP-M45(1-90) (domain or fragment, murine cytomegalovirus, UniProt Q06A28 1-90, looked up)
chain: B1 chain
B8: synthetic peptide encompassing the RHIM of M45 (peptide)
peptide: VRIMNGVSGIQIGNHNAMS
B9: RIPK1(497-583) after removal of MBP with thrombin (domain or fragment, human, UniProt Q13546 497-583, looked up)
chain: T1 sequence (looked up)
B10: Alexa488-labelled RIPK1(497-583) (domain or fragment, human, UniProt Q13546 497-583, looked up)
chain: T1 sequence (looked up)
modifications: Alexa Fluor 488, covalent label, site not stated (degree of labelling 5%)
B11: YPet-RIPK1(497-583) (domain or fragment, human, UniProt Q13546 497-583, looked up)
chain: T1 sequence (looked up)
B12: RIPK1(497-583) after removal of His6-ubiquitin (domain or fragment, human, UniProt Q13546 497-583, looked up)
chain: T1 sequence (looked up)
B13: MBP-RIPK1(497-583) (domain or fragment, human, UniProt Q13546 497-583, looked up)
chain: T1 sequence (looked up)
B14: mCHERRY-RIPK1(497-583) (domain or fragment, human, UniProt Q13546 497-583, looked up)
chain: T1 sequence (looked up)
B15: RIPK3(387-518) after removal of MBP with thrombin (domain or fragment, human, UniProt Q9Y572 387-518, looked up)
chain: T2 sequence (looked up)
B16: YPet-RIPK3(387-518) (domain or fragment, human, UniProt Q9Y572 387-518, looked up)
chain: T2 sequence (looked up)

Data set [1] concerns the molecule itself. Nature of the data set: sedimentation of insoluble material + transmission electron microscopy.
Data set [2] concerns the molecule itself. As to the kind of experiment: negative-stain transmission electron microscopy.
For data set [3], the target named is B16. As to the kind of experiment: single-molecule two-colour fluorescence coincidence spectroscopy.
Data set [4] concerns the molecule itself. Described as above.
Data set [5] deals with the molecule itself. As to the kind of experiment: confocal fluorescence microscopy of fibrils.
Data set [6] deals with the molecule itself. As to the kind of experiment: X-ray fibre diffraction.
Data set [7] deals with the molecule itself. Nature of the data set: SEC. (SEC sorts molecules by how far they enter the pores of the column.)
For data set [8], the target named is B16. Nature of the data set: confocal fluorescence microscopy of fibrils.
Data set [9] deals with the molecule itself. As to the kind of experiment: transmission electron microscopy + thioflavin T fluorescence.
Data set [10] has as its target B5. As to the kind of experiment: fluorescence polarisation.
For data set [11], the target named is T1, His-Ub-RIPK1(497-583). As to the kind of experiment: fluorescence polarisation.
Data set [12] concerns the target T2, His-Ub-RIPK3(387-518). As to the kind of experiment: fluorescence polarisation. For orientation: Polarisation of emitted light reports the rotation of a fluorescent probe.
Data set [13] deals with B14. Nature of the data set: single-molecule two-colour fluorescence coincidence spectroscopy.
The target in data set [14] is B3. Described as above.
Data set [15] deals with the molecule itself. Nature of the data set: thioflavin T fluorescence kinetics.
The target in data set [16] is B7. Nature of the data set: confocal fluorescence microscopy of fibrils.
The target in data set [17] is T3, mCHERRY-RIPK3(387-518). As to the kind of experiment: single-molecule two-colour fluorescence coincidence spectroscopy.

Take B1: the binding result in data set [1] was “binds”.

For the molecule B2, in data set [2], the binding result was “binds”.

On to B3, for which the binding result in data set [3] and in [4] was “binds” in each case.

Take B4: in data set [5], the binding result is “binds”.

As to B5, in data set [6], the binding result is on record as “binds”.

In the case of B6, the binding result in data set [7] is listed as “binds”.

In the case of B7, the binding result in [8] was “binds”.

With B8, the binding result in [9] is given as “binds”.

B9: the binding result in [1] is listed as “binds”.

On to B10, for which the binding result in [10], in data set [11] and in [12] was “binds” each time.

Turning to B11, the binding result in data set [13] and in data set [14] was “binds” each time.

As for B12, the binding result in data set [2] is “binds”.

In the case of B13, the binding result in data set [7] is reported as “binds”.

Consider B14, for which the binding result in data set [15], in data set [3] and in data set [16] was “binds” in each case.

As for B15, the binding result in [1] is on record as “binds”.

As for B16, the binding result in data set [17] is recorded as “binds”.

The values above are taken from article doi:10.1101/324590 (bioRxiv, 2018).
